Read-outs that look alike come from different tables or passages of the source.
How the values were obtained:
Assay in all cases: NMR titration
[1] = target: ^2–5FnI, second to fifth type I domains of human fibronectin (human)
[2] = target: ^2–3FnI, human fibronectin residues 93–182 (human) (UniProt P02751)
[3] = target: ^4–5FnI, human fibronectin residues 183–275 (human) (UniProt P02751)
[4] = target: ^4–5FnI, human fibronectin residues 183–275 (human) (UniProt P02751); remark: listed apart in the source

| Substance | Kd [1] | fractional saturation [1] | Kd [2] | Kd [3] | Kd [4] |
| --- | --- | --- | --- | --- | --- |
| ^2–3FnIII, second and third type III domains of human fibronectin (domain or fragment) | 125 µM | 25% |  |  |  |
| ^2FnIII, second type III domain of human fibronectin (domain or fragment) |  |  | 710 µM | 1200 µM | 820 µM |

Reference: publication PMC2708863
